Results on 5 molecules are retold here after US20140087995A1 (published 2014).

Numbered stars: 1 amine (or outer) side, 2 acyl side, 3 side chain; on linkers, the order of the positions; unused ones are H or OH. Bridge positions count the residues as written; N and C are the ends. Side chains are listed from the residue outwards. Ends that are not written are not given here. * marks the point of attachment. C20 diacid = O=C(O)CCCCCCCCCCCCCCCCCCC(=O)*; γGlu = O=C(O)[C@H](CCC(=O)[*:2])N[*:1]; AEEA = NCCOCCOCC(=O)O

T1: human calcitonin receptor (human, UniProt P30988 25-474)
T1 sequence (looked up): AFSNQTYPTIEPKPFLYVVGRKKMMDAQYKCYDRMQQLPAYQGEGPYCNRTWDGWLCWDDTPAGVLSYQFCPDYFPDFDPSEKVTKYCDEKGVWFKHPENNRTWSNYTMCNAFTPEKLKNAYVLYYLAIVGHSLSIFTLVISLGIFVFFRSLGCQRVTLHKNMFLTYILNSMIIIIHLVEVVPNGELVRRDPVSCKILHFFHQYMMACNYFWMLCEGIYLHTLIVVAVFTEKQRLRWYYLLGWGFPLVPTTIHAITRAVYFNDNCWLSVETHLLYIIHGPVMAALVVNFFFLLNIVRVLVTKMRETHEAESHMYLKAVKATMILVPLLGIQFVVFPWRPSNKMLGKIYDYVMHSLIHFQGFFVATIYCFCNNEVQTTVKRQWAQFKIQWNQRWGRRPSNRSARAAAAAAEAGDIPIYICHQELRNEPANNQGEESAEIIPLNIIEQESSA

B1: N^ε1-[2-[2-[2-[[(4S)-4-carboxy-4-(19-carboxynonadecanoylamino)butanoyl]amino]ethoxy]ethoxy]acetyl]-[His14,Arg17,Pro21,Pro27,His34]-h-amylin (peptide)
peptide: K([AEEA-γGlu-C20 diacid])CNTATCATQRLAHFLRHSSPNFGAIPSSTNVGHNTY-NH2
modifications: disulfide 2-7; N-terminus assumed
SMILES: CC[C@H](C)[C@H](NC(=O)[C@H](C)NC(=O)CNC(=O)[C@H](Cc1ccccc1)NC(=O)[C@H](CC(N)=O)NC(=O)[C@@H]1CCCN1C(=O)[C@H](CO)NC(=O)[C@H](CO)NC(=O)[C@H](Cc1c[nH]cn1)NC(=O)[C@H](CCCNC(=N)N)NC(=O)[C@H](CC(C)C)NC(=O)[C@H](Cc1ccccc1)NC(=O)[C@H](Cc1c[nH]cn1)NC(=O)[C@H](C)NC(=O)[C@H](CC(C)C)NC(=O)[C@H](CCCNC(=N)N)NC(=O)[C@H](CCC(N)=O)NC(=O)[C@@H](NC(=O)[C@H](C)NC(=O)[C@@H]1CSSC[C@H](NC(=O)[C@@H](N)CCCCNC(=O)COCCOCCNC(=O)CC[C@H](NC(=O)CCCCCCCCCCCCCCCCCCC(=O)O)C(=O)O)C(=O)N[C@@H](CC(N)=O)C(=O)N[C@@H]([C@@H](C)O)C(=O)N[C@@H](C)C(=O)N[C@@H]([C@@H](C)O)C(=O)N1)[C@@H](C)O)C(=O)N1CCC[C@H]1C(=O)N[C@@H](CO)C(=O)N[C@@H](CO)C(=O)N[C@H](C(=O)N[C@@H](CC(N)=O)C(=O)N[C@H](C(=O)NCC(=O)N[C@@H](Cc1c[nH]cn1)C(=O)N[C@@H](CC(N)=O)C(=O)N[C@H](C(=O)N[C@@H](Cc1ccc(O)cc1)C(N)=O)[C@@H](C)O)C(C)C)[C@@H](C)O
notes: Synthetic acylated analogue of human amylin; also called compound 80
B2: N^ε1N^ε1-[(4S)-4-carboxy-4-(19-carboxynonadecanoylamino)butanoyl]-[His14,Arg17,Pro21,Pro27,Pro34]-h-amylin (peptide)
peptide: K([γGlu-C20 diacid])CNTATCATQRLAHFLRHSSPNFGAIPSSTNVGPNTY-NH2
modifications: disulfide 2-7; N-terminus assumed
SMILES: CC[C@H](C)[C@H](NC(=O)[C@H](C)NC(=O)CNC(=O)[C@H](Cc1ccccc1)NC(=O)[C@H](CC(N)=O)NC(=O)[C@@H]1CCCN1C(=O)[C@H](CO)NC(=O)[C@H](CO)NC(=O)[C@H](Cc1c[nH]cn1)NC(=O)[C@H](CCCNC(=N)N)NC(=O)[C@H](CC(C)C)NC(=O)[C@H](Cc1ccccc1)NC(=O)[C@H](Cc1c[nH]cn1)NC(=O)[C@H](C)NC(=O)[C@H](CC(C)C)NC(=O)[C@H](CCCNC(=N)N)NC(=O)[C@H](CCC(N)=O)NC(=O)[C@@H](NC(=O)[C@H](C)NC(=O)[C@@H]1CSSC[C@H](NC(=O)[C@@H](N)CCCCNC(=O)CC[C@H](NC(=O)CCCCCCCCCCCCCCCCCCC(=O)O)C(=O)O)C(=O)N[C@@H](CC(N)=O)C(=O)N[C@@H]([C@@H](C)O)C(=O)N[C@@H](C)C(=O)N[C@@H]([C@@H](C)O)C(=O)N1)[C@@H](C)O)C(=O)N1CCC[C@H]1C(=O)N[C@@H](CO)C(=O)N[C@@H](CO)C(=O)N[C@H](C(=O)N[C@@H](CC(N)=O)C(=O)N[C@H](C(=O)NCC(=O)N1CCC[C@H]1C(=O)N[C@@H](CC(N)=O)C(=O)N[C@H](C(=O)N[C@@H](Cc1ccc(O)cc1)C(N)=O)[C@@H](C)O)C(C)C)[C@@H](C)O
notes: Synthetic acylated analogue of human amylin; also called compound 67
B3: N^ε1-[(4S)-4-carboxy-4-(19-carboxynonadecanoylamino)butanoyl]-[His14,Arg17,Pro21,Pro27,His34]-h-amylin (peptide)
peptide: K([γGlu-C20 diacid])CNTATCATQRLAHFLRHSSPNFGAIPSSTNVGHNTY-NH2
modifications: disulfide 2-7; N-terminus assumed
SMILES: CC[C@H](C)[C@H](NC(=O)[C@H](C)NC(=O)CNC(=O)[C@H](Cc1ccccc1)NC(=O)[C@H](CC(N)=O)NC(=O)[C@@H]1CCCN1C(=O)[C@H](CO)NC(=O)[C@H](CO)NC(=O)[C@H](Cc1c[nH]cn1)NC(=O)[C@H](CCCNC(=N)N)NC(=O)[C@H](CC(C)C)NC(=O)[C@H](Cc1ccccc1)NC(=O)[C@H](Cc1c[nH]cn1)NC(=O)[C@H](C)NC(=O)[C@H](CC(C)C)NC(=O)[C@H](CCCNC(=N)N)NC(=O)[C@H](CCC(N)=O)NC(=O)[C@@H](NC(=O)[C@H](C)NC(=O)[C@@H]1CSSC[C@H](NC(=O)[C@@H](N)CCCCNC(=O)CC[C@H](NC(=O)CCCCCCCCCCCCCCCCCCC(=O)O)C(=O)O)C(=O)N[C@@H](CC(N)=O)C(=O)N[C@@H]([C@@H](C)O)C(=O)N[C@@H](C)C(=O)N[C@@H]([C@@H](C)O)C(=O)N1)[C@@H](C)O)C(=O)N1CCC[C@H]1C(=O)N[C@@H](CO)C(=O)N[C@@H](CO)C(=O)N[C@H](C(=O)N[C@@H](CC(N)=O)C(=O)N[C@H](C(=O)NCC(=O)N[C@@H](Cc1c[nH]cn1)C(=O)N[C@@H](CC(N)=O)C(=O)N[C@H](C(=O)N[C@@H](Cc1ccc(O)cc1)C(N)=O)[C@@H](C)O)C(C)C)[C@@H](C)O
notes: Synthetic acylated analogue of human amylin; also called compound 81
B4: N^ε1-[(4S)-4-carboxy-4-[[(4S)-4-carboxy-4-(19-carboxynonadecanoylamino)butanoyl]amino]butanoyl]-[Glu14,Arg17,Pro21,Pro27,His34]-h-amylin (peptide)
peptide: K([γGlu-γGlu-C20 diacid])CNTATCATQRLAEFLRHSSPNFGAIPSSTNVGHNTY-NH2
modifications: disulfide 2-7; N-terminus assumed
SMILES: CC[C@H](C)[C@H](NC(=O)[C@H](C)NC(=O)CNC(=O)[C@H](Cc1ccccc1)NC(=O)[C@H](CC(N)=O)NC(=O)[C@@H]1CCCN1C(=O)[C@H](CO)NC(=O)[C@H](CO)NC(=O)[C@H](Cc1c[nH]cn1)NC(=O)[C@H](CCCNC(=N)N)NC(=O)[C@H](CC(C)C)NC(=O)[C@H](Cc1ccccc1)NC(=O)[C@H](CCC(=O)O)NC(=O)[C@H](C)NC(=O)[C@H](CC(C)C)NC(=O)[C@H](CCCNC(=N)N)NC(=O)[C@H](CCC(N)=O)NC(=O)[C@@H](NC(=O)[C@H](C)NC(=O)[C@@H]1CSSC[C@H](NC(=O)[C@@H](N)CCCCNC(=O)CC[C@H](NC(=O)CC[C@H](NC(=O)CCCCCCCCCCCCCCCCCCC(=O)O)C(=O)O)C(=O)O)C(=O)N[C@@H](CC(N)=O)C(=O)N[C@@H]([C@@H](C)O)C(=O)N[C@@H](C)C(=O)N[C@@H]([C@@H](C)O)C(=O)N1)[C@@H](C)O)C(=O)N1CCC[C@H]1C(=O)N[C@@H](CO)C(=O)N[C@@H](CO)C(=O)N[C@H](C(=O)N[C@@H](CC(N)=O)C(=O)N[C@H](C(=O)NCC(=O)N[C@@H](Cc1c[nH]cn1)C(=O)N[C@@H](CC(N)=O)C(=O)N[C@H](C(=O)N[C@@H](Cc1ccc(O)cc1)C(N)=O)[C@@H](C)O)C(C)C)[C@@H](C)O
notes: Synthetic acylated analogue of human amylin; also called compound 87
B5: N^ε1-[(4S)-4-carboxy-4-[[(4S)-4-carboxy-4-(19-carboxynonadecanoylamino)butanoyl]amino]butanoyl]-[Arg17,Pro21,Pro27,His34]-h-amylin (peptide)
peptide: K([γGlu-γGlu-C20 diacid])CNTATCATQRLANFLRHSSPNFGAIPSSTNVGHNTY-NH2
modifications: disulfide 2-7; N-terminus assumed
SMILES: CC[C@H](C)[C@H](NC(=O)[C@H](C)NC(=O)CNC(=O)[C@H](Cc1ccccc1)NC(=O)[C@H](CC(N)=O)NC(=O)[C@@H]1CCCN1C(=O)[C@H](CO)NC(=O)[C@H](CO)NC(=O)[C@H](Cc1c[nH]cn1)NC(=O)[C@H](CCCNC(=N)N)NC(=O)[C@H](CC(C)C)NC(=O)[C@H](Cc1ccccc1)NC(=O)[C@H](CC(N)=O)NC(=O)[C@H](C)NC(=O)[C@H](CC(C)C)NC(=O)[C@H](CCCNC(=N)N)NC(=O)[C@H](CCC(N)=O)NC(=O)[C@@H](NC(=O)[C@H](C)NC(=O)[C@@H]1CSSC[C@H](NC(=O)[C@@H](N)CCCCNC(=O)CC[C@H](NC(=O)CC[C@H](NC(=O)CCCCCCCCCCCCCCCCCCC(=O)O)C(=O)O)C(=O)O)C(=O)N[C@@H](CC(N)=O)C(=O)N[C@@H]([C@@H](C)O)C(=O)N[C@@H](C)C(=O)N[C@@H]([C@@H](C)O)C(=O)N1)[C@@H](C)O)C(=O)N1CCC[C@H]1C(=O)N[C@@H](CO)C(=O)N[C@@H](CO)C(=O)N[C@H](C(=O)N[C@@H](CC(N)=O)C(=O)N[C@H](C(=O)NCC(=O)N[C@@H](Cc1c[nH]cn1)C(=O)N[C@@H](CC(N)=O)C(=O)N[C@H](C(=O)N[C@@H](Cc1ccc(O)cc1)C(N)=O)[C@@H](C)O)C(C)C)[C@@H](C)O
notes: Synthetic acylated analogue of human amylin; also called compound 86

The target in this experiment is T1, human calcitonin receptor. Nature of the experiment: cell-based or functional assay.
B1: the “Ratio hCT/hAmylin funct.” value was determined as 15.4.

As for B2, the “Ratio hCT/hAmylin funct.” value is 5.2 and the “hCTR funct. EC50 (pM)” value is 354 pM.

As to B3, the “Ratio hCT/hAmylin funct.” value was 13.3.

For the molecule B4, the “Ratio hCT/hAmylin funct.” value came out at 3.8 and the “hCTR funct. EC50 (pM)” value turned out to be 1100 pM.

On to B5, for which the “hCTR funct. EC50 (pM)” value came to 19200 pM.
